Data on one substance can be found in PMC6829862.

The assay concerns the target mCherry–Gβ1γ9 dimer (UniProt P62873). The experiment in a line: FRET or BRET; FLIM-FRET in living transiently transfected HEK 293 cells at 37 °C; donor Citrine in Gα, acceptor mCherry on Gβ1 with the appropriate Gγ; efficiency E = 1 − τda/τd from the short lifetime component τ1 (donor alone 2.7 ± 0.1 ns), analysed only at the plasma membrane; GppNHp added to the culture did not change the signal.

Sequence of Citrine–Gαi3 (P08754 whole entry): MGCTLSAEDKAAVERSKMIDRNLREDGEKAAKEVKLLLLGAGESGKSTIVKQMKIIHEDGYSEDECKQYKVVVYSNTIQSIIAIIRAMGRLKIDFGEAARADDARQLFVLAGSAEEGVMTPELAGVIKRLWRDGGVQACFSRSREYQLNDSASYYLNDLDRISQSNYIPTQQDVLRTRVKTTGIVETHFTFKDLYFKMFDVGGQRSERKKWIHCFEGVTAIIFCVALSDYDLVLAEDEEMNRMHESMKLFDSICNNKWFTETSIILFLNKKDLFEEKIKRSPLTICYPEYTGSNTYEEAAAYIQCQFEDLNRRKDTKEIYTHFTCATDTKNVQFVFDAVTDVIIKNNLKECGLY

Regarding “Citrine–Gαi3 (from UniProt P08754 1-354) (natural protein)”, the FRET efficiency, lower than that of m3 with m4 by was found to be 5%.
